Data on 38 variants can be found in the RNAGym collection of RNA variant scans (doi:10.7554/elife.80360).

The chains are these.
B1: Hairpin Ribozyme (parent)
chain: GUCCUCUUUCACGUGCGCGUGAAAGAGAGAAGUGAACCAGAGAAACACACGUUGUGGUAUAUUACCUGGUA

Variants of B1 are the subject of the data set. The data set can be described thus: self-cleavage, relative activity (ratio to wild type); higher = more cleavage; co-transcriptional.
As for GUCCUAUUUCACGUGCGCGUGAAAGAGAGAAGUGUACCAGAGAAACACACGUUGUGGUAUAUUACCUGGUA [C6A A35U], the self-cleavage came out at 0.428.

On to GUCCUAUUUCACGUGCGCGUGAAAGAGAGAAGUGCACCAGAGAAACACACGUUGUGGUAUAUUACCUGGUA [C6A A35C], for which the self-cleavage came out at 0.695.

For GUCCGCUUUCACGUGCGCGUGAAAGAGAGAAGUGAACCAGAGAAACACACGUUGUGGUAUAUUACCUGGAA [U5G U70A], the self-cleavage amounted to 0.204.

With GUCCGCUUUCACGUGCGCGUGAAAGAGAGAAGUGAACCAGAGAAACACACGUUGUGGUAUAUUACCUGGCA [U5G U70C], the self-cleavage turned out to be 0.226.

Turning to GUCCUACUUCACGUGCGCGUGAAAGAGAGAAGUGAACCAGAGAAACACACGUUGUGGUAUAUUACCUGGUA [C6A U7C], the self-cleavage came to 0.609.

GUCCUAUUUCACGUGCGCGUGAAAGAGAGAAGUGAACCAGAAAAACACACGUUGUGGUAUAUUACCUGGUA [C6A G42A]: the self-cleavage was 0.161.

Consider GUCCUAUUUCACGUGCACGUGAAAGAGAGAAGUGAACCAGAGAAACACACGUUGUGGUAUAUUACCUGGUA [C6A G17A], for which the self-cleavage is 0.663.

In the case of GUCCUAUAUCACGUGCGCGUGAAAGAGAGAAGUGAACCAGAGAAACACACGUUGUGGUAUAUUACCUGGUA [C6A U8A], the self-cleavage came out at 0.319.

For GUCCUAUUUCACGUGCGCGUGAAAGAGAGAAGUGAACCAGAGAAACAUACGUUGUGGUAUAUUACCUGGUA [C6A C48U], the self-cleavage was determined as 0.158.

With GUCCUAUUUCACGUGCGCGUGAAAGAGAGAAGUGAACCAGAGAAACACACGUUGUGGUAUAUUAUCUGGUA [C6A C65U], the self-cleavage was determined as 0.265.

Consider GUCCUAUUUCACGUGCGCGUGAAAGAGAGAAGUGAACCAGAGAAACACACGUUGUGGUAUAUUAGCUGGUA [C6A C65G], for which the self-cleavage was 0.158.

GUCCUAUUUCACGUGCGCGUGAAAGAGAAAAGUGAACCAGAGAAACACACGUUGUGGUAUAUUACCUGGUA [C6A G29A]: the self-cleavage was found to be 0.129.

As to GUCCUAUUUCACGUGCGCGUGAAAGAGAUAAGUGAACCAGAGAAACACACGUUGUGGUAUAUUACCUGGUA [C6A G29U], the self-cleavage amounted to 0.124.

Consider GUCCUAUUUCACGUGCGCGUGAAAGAGAGAAGUAAACCAGAGAAACACACGUUGUGGUAUAUUACCUGGUA [C6A G34A], for which the self-cleavage is 0.817.

GUCCUAUUUCACGUGCGCGUGAAAGAGAGAAGUGAACCAGAGAAACACACGUUGUAGUAUAUUACCUGGUA [C6A G56A]: the self-cleavage turned out to be 0.117.

Consider GUCCUAUUUCACGUGCGCGUGAAAGAGAGAAGUGAACCAGAGAAACACACGUUGUUGUAUAUUACCUGGUA [C6A G56U], for which the self-cleavage was 0.218.

Turning to GUCCGCUUUCACGUGCGCGUGAAAGAGAGAAGUGAACCAGAGAAAAACACGUUGUGGUAUAUUACCUGGUA [U5G C46A], the self-cleavage is 0.195.

Take GUCCUAUUUCACGUGCGCGUGAAAGAGUGAAGUGAACCAGAGAAACACACGUUGUGGUAUAUUACCUGGUA [C6A A28U]: the self-cleavage came to 0.365.

As to GUCCUAUUUCACGUGCGCGUGAAAGAGGGAAGUGAACCAGAGAAACACACGUUGUGGUAUAUUACCUGGUA [C6A A28G], the self-cleavage was 0.811.

As to GUCCGCUUUCACGUGCGCGUGAAAGAGAGAAGUGAACCAGAGAAACACAUGUUGUGGUAUAUUACCUGGUA [U5G C50U], the self-cleavage came to 0.147.

Regarding GUCCGCUUUCACGUGCGCGUGAAAGAGAGAAGUGAACCAGAGAAACACACGUUGUGGUAUAUUAGCUGGUA [U5G C65G], the self-cleavage came to 0.0535.

As for GUCCUAUUUCACGUGCGCGUGAAAGAGAGAAGUGAACCAGAGAAACCCACGUUGUGGUAUAUUACCUGGUA [C6A A47C], the self-cleavage is 0.221.

GUCCUAUUUCACGUGCGCGUGAAAGAGAGAAGUGAACCAGAGAAACUCACGUUGUGGUAUAUUACCUGGUA [C6A A47U]: the self-cleavage came to 0.182.

Regarding GUCCGCUUUCACGUGCGCGUGAAAGAGAGAAGUGAACCAGAGAAACACACGUUGUUGUAUAUUACCUGGUA [U5G G56U], the self-cleavage was found to be 0.125.

Regarding GUCCUAUUUCACGUGCGCGUGAAAGAGAGAAGUGAACCAGAGAAGCACACGUUGUGGUAUAUUACCUGGUA [C6A A45G], the self-cleavage worked out at 0.0698.

On to GUCCGCUUUCACGUGCGCGUGAAAGAGAGAAGUUAACCAGAGAAACACACGUUGUGGUAUAUUACCUGGUA [U5G G34U], for which the self-cleavage was found to be 1.08.

Turning to GUCCUAUUUCACGUGCGCGUGAAAGAGAGAAUUGAACCAGAGAAACACACGUUGUGGUAUAUUACCUGGUA [C6A G32U], the self-cleavage was determined as 0.133.

Take GUCCUAUUUCACGUGCGCGUGAAAGAGAGAAAUGAACCAGAGAAACACACGUUGUGGUAUAUUACCUGGUA [C6A G32A]: the self-cleavage is 0.122.

Regarding GUCCUAUUUCACGUGCGCGUGAAAGAGAGAACUGAACCAGAGAAACACACGUUGUGGUAUAUUACCUGGUA [C6A G32C], the self-cleavage is 0.133.

GUCCUAUUUCACGUGCGCGUGAAAGAGAGAAGUGAACCAGAGAAACACACGUUGUGGUUUAUUACCUGGUA [C6A A59U]: the self-cleavage came out at 0.107.

On to GUCCUAUUUCACGUGCGCGUGAAAGAGAGAAGUGAACCAGAGAAACACACGUUGUGGUCUAUUACCUGGUA [C6A A59C], for which the self-cleavage was 0.113.

Consider GUCCGCUUUCACGUGCGCGUGAAAGAGAGAAGUGAACCAGAGAAACACACGUUCUGGUAUAUUACCUGGUA [U5G G54C], for which the self-cleavage amounted to 0.212.

For GUCCGCUUUCACGUGCGCGUGAAAGAGAGAAGUGAACCAGAGAAACACACGUUAUGGUAUAUUACCUGGUA [U5G G54A], the self-cleavage came out at 0.204.

Turning to GUCCGCUUUCACGUGCGCGUGAAAGAGAGAAGUGAACCAGAGAAACAUACGUUGUGGUAUAUUACCUGGUA [U5G C48U], the self-cleavage is 0.196.

Turning to GUCCUAUUUGACGUGCGCGUGAAAGAGAGAAGUGAACCAGAGAAACACACGUUGUGGUAUAUUACCUGGUA [C6A C10G], the self-cleavage came to 0.377.

Turning to GUCCUAUUUCACGUGCGCGUGAAAGAGAGAAGUGAACGAGAGAAACACACGUUGUGGUAUAUUACCUGGUA [C6A C38G], the self-cleavage was found to be 0.149.

For the variant GUCCUAUUUCACGUGCGCGUGAAAGAGAGAAGUGAACUAGAGAAACACACGUUGUGGUAUAUUACCUGGUA [C6A C38U], the self-cleavage was determined as 0.354.

Turning to GUCCGCUUUCACGUGCGCGUGAAAGAGAGAAGUGAACCAGAGAAACACACGUUGGGGUAUAUUACCUGGUA [U5G U55G], the self-cleavage amounted to 0.2.
